Test results from patent US20070009442A1, “Macrocyclic metal complexes and their use for the production of conjugates with biomolecules” (priority 2001, published 2007).

Assays:
[1] = Relaxivity of the conjugates in plasma; assay type: physicochemical; settings: +37° C., 20 MHz, relaxivity per mol of gadolinium calculated from the measured values
Experimental: (§1) As comparison substances, Gd-DTPA (1) with the formula: [drawing 16] and Gd-GlyMeDOTA (2) with the formula: [drawing 17] which were reacted in each case with bovine serum albumin (BSA), were used.
(§2) The measurements were made in each case in aqueous solution and in plasma at +37° C. and a frequency of 20 MHz. The results are summarized in Table 2 below, whereby the indicated relaxivities per mol of gadolinium were calculated from the measured values: […]

[2] = Relaxivity of the conjugates in aqueous solution; assay type: physicochemical; settings: +37° C., 20 MHz, relaxivity per mol of gadolinium calculated from the measured values
Experimental: as §1, §2

Gd-GlyMeDOTA [Vergleichssubstanz 2]
R1 (Plasma) [1]: 20.8 L/mmol/s
R1 (H2O) [2]: 18.3 L/mmol/s
